Experimental data taken from PMC5362816, “Calmodulin is responsible for Ca^2+-dependent regulation of TRPA1 Channels” (Scientific Reports, 2017).

Legend:
CaM-agarose (Sigma) = target: T1, CaM-agarose (Sigma) (UniProt P62157 1-149, coupled to agarose); test: pull-down; competition: purified GST-C1A1 fragment on CaM-agarose with 200 μM peptide (CaMBD peptide, scrambled peptide or CALP2); conditions: both partners purified
T1 construct: calmodulin coupled to agarose, bought from Sigma; Commercial reagent; also called calmodulin; source: bought: Sigma (CaM-agarose)

pure CaM (Sigma) = target: T2, pure CaM (Sigma) (UniProt P62157 1-149); test: native gel or EMSA; 600 nM CaM incubated with different molar ratios of peptide; 10 mM Na-HEPES pH 7.2, 2 mM Ca2+, room temperature, 1 h; 12% non-denaturing PAGE with 2 mM Ca2+; silver staining (read-out: CaM band intensity, no mobility shift); conditions: both partners purified
T2 construct: pure calmodulin bought from Sigma; also called calmodulin; source: bought: Sigma

B1: CaMBD peptide (peptide)
peptide: LWYLRKVDQRSTIVYPN
notes: also called WT peptide; the 17AA; source: synthetic peptide (Biomatik)
B1: binds (CaM-agarose (Sigma)); binds (pure CaM (Sigma)).
